As usually defined, the Tm is the temperature at which the thermal transition is half complete.

The values below come from FireProtDB.

The chains are these.
B1: Ribonuclease HI, P0A7Y4 (parent)
chain: MLKQVEIFTDGSCLGNPGPGGYGAILRYRGREKTFSAGYTRTTNNRMELMAAIVALEALKEHCEVILSTDSQYVRQGITQWIHNWKKRGWKTADKKPVKNVDLWQRLDAALGQHQIKWEWVKGHAGHPENERCDELARAAAMNPTLEDTGYQVEV

One series covers variants of B1. Conditions: Escherichia coli (strain K12); pH 3; 50.1 °C; Thermal; CD; glycine-HCl 10 mM; NaCl 0.1 M; reversible: yes; structure 2RN2; whole UniProt chain shown.
Regarding A24V, the “ddG of mutation (higher = less stable)” value is -0.73 kcal/mol.

For the variant E119V R41C, the “ddG of mutation (higher = less stable)” value is -0.09 kcal/mol.

Regarding E119V, the “ddG of mutation (higher = less stable)” value is -0.09 kcal/mol.

Regarding Q76L, the “ddG of mutation (higher = less stable)” value is -0.24 kcal/mol.

Take E135K: the “ddG of mutation (higher = less stable)” value turned out to be 1.1 kcal/mol.

Consider K117R, for which the “ddG of mutation (higher = less stable)” value came to 0.06 kcal/mol.

Take A52V: the “ddG of mutation (higher = less stable)” value is -1.7 kcal/mol.

For the variant G23A, the “ddG of mutation (higher = less stable)” value is -0.7 kcal/mol.

Turning to R41C, the “ddG of mutation (higher = less stable)” value is -0.12 kcal/mol.

For the variant H62P, the “ddG of mutation (higher = less stable)” value was -1 kcal/mol.

The same series, now with this note: Escherichia coli (strain K12); pH 3; Thermal; CD; glycine-HCl 10 mM; NaCl 0.1 M; reversible: yes; structure 2RN2; whole UniProt chain shown.
As for A24V, the midpoint of thermal melting (Tm) came to 52.5 °C; the “change of melting temperature, mutant - wild type (higher = more stable)” value (“change of melting temperature, mutant” for short) stood at 2.4 °C; the “unfolding enthalpy (van 't Hoff)” value was 109 kcal/mol.

For E119V R41C, the Tm was found to be 50.4 °C; the “change of melting temperature, mutant” value worked out at 0.3 °C; the “unfolding enthalpy (van 't Hoff)” value came out at 101 kcal/mol.

Regarding Q76L, the midpoint of thermal melting (Tm) was found to be 50.9 °C; the “change of melting temperature, mutant” value came out at 0.8 °C; the “unfolding enthalpy (van 't Hoff)” value turned out to be 110 kcal/mol.

With E135K, the midpoint of thermal melting (Tm) was found to be 46.4 °C; the “change of melting temperature, mutant” value is -3.7 °C; the “unfolding enthalpy (van 't Hoff)” value was 99 kcal/mol.

K117R: the melting temperature (Tm) turned out to be 49.9 °C; the “change of melting temperature, mutant” value was -0.2 °C; the “unfolding enthalpy (van 't Hoff)” value is 97.1 kcal/mol.

Take A52V: the Tm came to 55.6 °C; the “change of melting temperature, mutant” value is 5.5 °C; the “unfolding enthalpy (van 't Hoff)” value was 128 kcal/mol.

As to G23A, the melting temperature (Tm) worked out at 52.4 °C; the “change of melting temperature, mutant” value was 2.3 °C; the “unfolding enthalpy (van 't Hoff)” value came out at 99.3 kcal/mol.

Consider H62P, for which the melting temperature (Tm) was found to be 53.5 °C; the “change of melting temperature, mutant” value is 3.4 °C; the “unfolding enthalpy (van 't Hoff)” value is 110 kcal/mol.

The series is the same for the next values; noted with them: Escherichia coli (strain K12); pH 5.5; Thermal; CD; Sodium acetate 20 mM; NaCl 0.1 M; reversible: yes; structure 2RN2; whole UniProt chain shown.
Consider A24V, for which the midpoint of thermal melting (Tm) amounted to 55.9 °C; the “change of melting temperature, mutant” value came to 3.2 °C; the “unfolding enthalpy (van 't Hoff)” value was determined as 101 kcal/mol.

Turning to E119V R41C, the melting temperature (Tm) was found to be 56.9 °C; the “change of melting temperature, mutant” value was 4.2 °C; the “unfolding enthalpy (van 't Hoff)” value was found to be 107 kcal/mol.

For the variant E119V, the Tm came out at 55.4 °C; the “change of melting temperature, mutant” value came to 2.7 °C; the “unfolding enthalpy (van 't Hoff)” value stood at 94.3 kcal/mol.

Consider Q76L, for which the midpoint of thermal melting (Tm) turned out to be 53.8 °C; the “change of melting temperature, mutant” value was 1.1 °C; the “unfolding enthalpy (van 't Hoff)” value turned out to be 81.2 kcal/mol.

For E135K, the midpoint of thermal melting (Tm) amounted to 51.9 °C; the “change of melting temperature, mutant” value is -0.8 °C; the “unfolding enthalpy (van 't Hoff)” value worked out at 89.9 kcal/mol.

Consider A52V, for which the Tm amounted to 60.5 °C; the “change of melting temperature, mutant” value was determined as 7.8 °C; the “unfolding enthalpy (van 't Hoff)” value turned out to be 87.5 kcal/mol.

For the variant G23A, the Tm was 54.5 °C; the “change of melting temperature, mutant” value was 1.8 °C; the “unfolding enthalpy (van 't Hoff)” value came to 91.8 kcal/mol.

Turning to R41C, the melting temperature (Tm) worked out at 54.3 °C; the “change of melting temperature, mutant” value is 1.6 °C; the “unfolding enthalpy (van 't Hoff)” value amounted to 102 kcal/mol.

For the variant H62P, the midpoint of thermal melting (Tm) was found to be 56.8 °C; the “change of melting temperature, mutant” value was found to be 4.1 °C; the “unfolding enthalpy (van 't Hoff)” value came out at 102 kcal/mol.

The series is the same for the next values; noted with them: Escherichia coli (strain K12); pH 5.5; 52.7 °C; Thermal; CD; Sodium acetate 20 mM; NaCl 0.1 M; reversible: yes; structure 2RN2; whole UniProt chain shown.
With E119V, the “ddG of mutation (higher = less stable)” value was -0.74 kcal/mol.

As to E135K, the “ddG of mutation (higher = less stable)” value turned out to be 0.22 kcal/mol.

Regarding K117R, the “ddG of mutation (higher = less stable)” value was -0.03 kcal/mol.

R41C: the “ddG of mutation (higher = less stable)” value is -0.44 kcal/mol.

On to H62P, for which the “ddG of mutation (higher = less stable)” value is -1.1 kcal/mol.

Still in this series, the particulars now being: Escherichia coli (strain K12); pH 5.5; 25 °C; Urea; CD; sodium acetate 20 mM; KCl 50 mM; structure 2RN2; whole UniProt chain shown.
On to I53D, for which the “ddG of mutation (higher = less stable)” value was found to be 4.1 kcal/mol, the denaturant m value turned out to be 2 kcal/mol/M and the unfolding free energy is 5.6 kcal/mol.

For I53F, the “ddG of mutation (higher = less stable)” value amounted to 3.9 kcal/mol, the denaturant m value is 2 kcal/mol/M and the unfolding free energy is 5.8 kcal/mol.

In the case of I53L, the “ddG of mutation (higher = less stable)” value was determined as 1.4 kcal/mol, the denaturant m value worked out at 2.3 kcal/mol/M and the unfolding free energy amounted to 8.3 kcal/mol.

Still in this series, the particulars now being: Escherichia coli (strain K12); pH 3; 49.8 °C; Thermal; CD; glycine-HCl 10 mM; reversible: yes; structure 2RN2; whole UniProt chain shown.
As to A125T, the “ddG of mutation (higher = less stable)” value was -0.1 kcal/mol.

With D94R K95G, the “ddG of mutation (higher = less stable)” value is -1.1 kcal/mol.

With H62P, the “ddG of mutation (higher = less stable)” value was -1 kcal/mol.

Staying with this series, now noted: Escherichia coli (strain K12); pH 3; Thermal; CD; glycine-HCl 10 mM; reversible: yes; structure 2RN2; whole UniProt chain shown.
As for A125T, the Tm was 50.2 °C; the “change of melting temperature, mutant” value is 0.4 °C; the “unfolding enthalpy (van 't Hoff)” value came out at 96.4 kcal/mol.

As for D94R K95G, the Tm was 53.4 °C; the “change of melting temperature, mutant” value was 3.6 °C; the “unfolding enthalpy (van 't Hoff)” value was 127 kcal/mol.

H62P: the midpoint of thermal melting (Tm) amounted to 53.2 °C; the “change of melting temperature, mutant” value stood at 3.4 °C; the “unfolding enthalpy (van 't Hoff)” value was 110 kcal/mol.

Still in this series, the particulars now being: Escherichia coli (strain K12); pH 5.5; 52 °C; Thermal; CD; glycine-HCl 10 mM; reversible: yes; structure 2RN2; whole UniProt chain shown.
Regarding A125T, the “ddG of mutation (higher = less stable)” value came out at 0 kcal/mol.

Staying with this series, now noted: Escherichia coli (strain K12); pH 5.5; Thermal; CD; glycine-HCl 10 mM; reversible: yes; structure 2RN2; whole UniProt chain shown.
On to A125T, for which the melting temperature (Tm) amounted to 52 °C; the “change of melting temperature, mutant” value is 0 °C; the “unfolding enthalpy (van 't Hoff)” value stood at 88.8 kcal/mol.

Consider D94R K95G, for which the Tm amounted to 57.5 °C; the “change of melting temperature, mutant” value stood at 5.5 °C; the “unfolding enthalpy (van 't Hoff)” value turned out to be 102 kcal/mol.

Still in this series, the particulars now being: Escherichia coli (strain K12); pH 5.5; 49.8 °C; Thermal; CD; glycine-HCl 10 mM; reversible: yes; structure 2RN2; whole UniProt chain shown.
Turning to D94R K95G, the “ddG of mutation (higher = less stable)” value is -1.5 kcal/mol.

Staying with this series, now noted: Escherichia coli (strain K12); pH 5.5; 25 °C; GdnHCl; CD; Sodium acetate 20 mM; reversible: yes; structure 2RN2; whole UniProt chain shown.
In the case of H62P, the “ddG of mutation (higher = less stable)” value was -0.74 kcal/mol, the denaturant m value is 4.98 kcal/mol/M, the “denaturant midpoint (higher = more stable)” value stood at 1.98 M and the unfolding free energy worked out at 9.89 kcal/mol.

Staying with this series, now noted: Escherichia coli (strain K12); pH 5.5; 52 °C; Thermal; CD; Sodium acetate 20 mM; reversible: yes; structure 2RN2; whole UniProt chain shown.
H62P: the “ddG of mutation (higher = less stable)” value is -1.1 kcal/mol.

Staying with this series, now noted: Escherichia coli (strain K12); pH 5.5; Thermal; CD; Sodium acetate 20 mM; reversible: yes; structure 2RN2; whole UniProt chain shown.
Turning to H62P, the melting temperature (Tm) worked out at 56.1 °C; the “change of melting temperature, mutant” value worked out at 4.1 °C; the “unfolding enthalpy (van 't Hoff)” value came out at 102 kcal/mol.
